Experimental data reported in paper PMC3084282.

Legend:
[1] = molecular target: α-crystallin (bovine lens) (bovine (endogenous in calf lens)) (UniProt P02470)
[2] = molecular target: α-crystallin (bovine lens) (bovine (endogenous in calf lens)) (UniProt P02470); remark: listed apart in the source

Sequence of UniProt P02470 (P02470 whole entry, chain 1 of 2): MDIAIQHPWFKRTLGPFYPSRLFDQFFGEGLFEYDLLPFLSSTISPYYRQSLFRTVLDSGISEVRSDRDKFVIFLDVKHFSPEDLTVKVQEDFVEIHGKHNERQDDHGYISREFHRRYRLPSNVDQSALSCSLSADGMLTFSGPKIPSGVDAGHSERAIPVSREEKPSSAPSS
Sequence of UniProt P02470 (P02510 whole entry, chain 2 of 2, further chain): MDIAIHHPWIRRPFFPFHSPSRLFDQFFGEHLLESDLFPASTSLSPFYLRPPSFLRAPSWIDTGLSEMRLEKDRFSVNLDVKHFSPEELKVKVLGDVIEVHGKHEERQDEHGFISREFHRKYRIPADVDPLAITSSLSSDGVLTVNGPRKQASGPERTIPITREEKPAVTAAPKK

- precipitation of soluble α-crystallin from 200 µg of CLE after incubation with increasing amounts of peptide (up to 50 µg), 16 h, 37°C; supernatant analysed by MALS [1]: > 50%
- Bis-ANS fluorescence (hydrophobicity) of α-crystallin (100 µg) with 10 or 20 µg of peptide, 50 mM phosphate buffer pH 7.2, 60 min [2]: 30%
Substance: αA-(66-80) peptide
